Target: BirA*-FLAG tagged GSK-3β (UniProt P49841 1-420)
Assay: proximity labelling

Sequence of BirA*-FLAG tagged GSK-3β (P49841 whole entry): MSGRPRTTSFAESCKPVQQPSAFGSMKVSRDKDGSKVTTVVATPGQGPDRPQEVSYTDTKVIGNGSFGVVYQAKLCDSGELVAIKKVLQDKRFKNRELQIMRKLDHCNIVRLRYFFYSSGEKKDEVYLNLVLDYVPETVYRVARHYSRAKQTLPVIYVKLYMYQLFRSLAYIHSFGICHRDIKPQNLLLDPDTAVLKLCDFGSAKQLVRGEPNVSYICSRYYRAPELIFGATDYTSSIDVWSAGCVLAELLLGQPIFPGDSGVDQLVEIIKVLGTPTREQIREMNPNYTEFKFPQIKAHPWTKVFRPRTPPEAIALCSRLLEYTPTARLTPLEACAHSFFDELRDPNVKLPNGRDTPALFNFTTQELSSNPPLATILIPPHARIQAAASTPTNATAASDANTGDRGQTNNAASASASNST

B1: MISP (natural protein)
chain: MDRVTRYPILGIPQAHRGTGLVLDGDTSYTYHLVCMGPEASGWGQDEPQTWPTDHRAQQGVQRQGVSYSVHAYTGQPSPRGLHSENREDEGWQVYRLGARDAHQGRPTWALRPEDGEDKEMKTYRLDAGDADPRRLCDLERERWAVIQGQAVRKSSTVATLQGTPDHGDPRTPGPPRSTPLEENVVDREQIDFLAARQQFLSLEQANKGAPHSSPARGTPAGTTPGASQAPKAFNKPHLANGHVVPIKPQVKGVVREENKVRAVPTWASVQVVDDPGSLASVESPGTPKETPIEREIRLAQEREADLREQRGLRQATDHQELVEIPTRPLLTKLSLITAPRRERGRPSLYVQRDIVQETQREEDHRREGLHVGRASTPDWVSEGPQPGLRRALSSDSILSPAPDARAADPAPEVRKVNRIPPDAYQPYLSPGTPQLEFSAFGAFGKPSSLSTAEAKAATSPKATMSPRHLSESSGKPLSTKQEASKPPRGCPQANRGVVRWEYFRLRPLRFRAPDEPQQAQVPHVWGWEVAGAPALRLQKSQSSDLLERERESVLRREQEVAEERRNALFPEVFSPTPDENSDQNSRSSSQASGITGSYSVSESPFFSPIHLHSNVAWTVEDPVDSAPPGQRKKEQWYAGINPSDGINSEVLEAIRVTRHKNAMAERWESRIYASEEDD
Q: B1 was tested. Which “fold signal intensity against the GSK-3α bait (normalised to bait level)” value did it give?
A: The value was ~4 fold.
